Reference: patent US20100172907A1 (Hoffmann-La Roche, published 2010)
Groups on a side chain read outwards from the residue. No end group written: not given here. NSMP = not defined here

Assays:
[1] = target: T1, BSA-conjugated Aβ heptapeptide VFFAEDC (C-terminal Cys coupled to NSMP-activated BSA); experiment: ELISA
T1 construct: also called Peptide 18-23
T1 peptide: VFFAEDC

[2] = target: T2, BSA-conjugated Aβ heptapeptide LVFFAEC (reading uncertain; also: BSA conjugate); experiment: ELISA
T2 construct: also called Peptide 17-22
T2 peptide: LVFFAEC([NSMP-BSA])

[3] = target: T3, BSA-conjugated Aβ heptapeptide FFAEDVC (C-terminal Cys coupled to NSMP-activated BSA); experiment: ELISA
T3 construct: also called Peptide 19-24
T3 peptide: FFAEDVC

[4] = target: T4, BSA-conjugated Aβ heptapeptide AEFRHDC (C-terminal Cys coupled to NSMP-activated BSA); experiment: ELISA
T4 construct: also called Peptide 2-7
T4 peptide: AEFRHDC

[5] = target: T5, human Aβ (1-40) peptide (human); experiment: SPR, immobilized fibers;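 also: biacore SPR using in vitro grown Aβ1-40 or Aβ1-42 fibrils immobilized on the chip with Fab analytes, KD from koff/kon fits or equilibrium isotherms based on total Fab concentration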
T5 construct: also called Aβ1-40 fibers
Protocol: (§1) Biacore2000 and Biacore3000 instruments were used for these measurements. Aβ1-40 and Aβ1-42 fibers were generated in vitro by incubation of synthetic peptides at a concentration of 200 μg/ml in 10 mM Na-acetate buffer (pH 4.0) for three days at 37° C. […] For binders with slow kinetics KD values were calculated by curve fitting of the time-dependent sensor responses, i.e. from the ratio of koff/kₒₙ. Binders with fast kinetics were analyzed by fitting the concentration-dependent sensor responses at equilibrium (adsorption-isotherms). KD values were calculated from the Biacore sensograms based on the total Fab concentration as determined by a protein assay. […] Briefly, time-dependent protein binding to Aβ1-40 fibers immobilized on the Biacore chip was measured during the association phase under mass-limited conditions at different flow rates of the analyte solution.

[6] = target: T6, Aβ (1-42) peptide (human); experiment: SPR, immobilized fibers;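 also: biacore SPR using in vitro grown Aβ1-40 or Aβ1-42 fibrils immobilized on the chip with Fab analytes, KD from koff/kon fits or equilibrium isotherms based on total Fab concentration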
T6 construct: also called Aβ1-42 fibers; Aβ4
Protocol: as §1

[7] = target: T5, human Aβ (1-40) peptide; experiment: SPR, kinetic fit, immobilized fibers;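 also: surface plasmon resonance on a Biacore chip bearing in vitro formed Aβ1-40 or Aβ1-42 fibers, KD taken as koff/kon by fitting time-resolved sensor responses, based on total Fab concentration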
Protocol: as §1

[8] = target: T6, Aβ (1-42) peptide; experiment: SPR, kinetic fit, immobilized fibers;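 also: surface plasmon resonance on a Biacore chip bearing in vitro formed Aβ1-40 or Aβ1-42 fibers, KD taken as koff/kon by fitting time-resolved sensor responses, based on total Fab concentration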
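For OD ratio 17-22/BSA in this document: ELISA of antibody at 10 or 2 µg/ml binding plate-coated BSA–peptide conjugates, detected with HRP anti-human Ig and TMB colour, mock-treated BSA without peptide as negative control.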
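For OD ratio 18-23/BSA in this document: ELISA of antibody at 10 or 2 µg/ml binding plate-coated BSA–peptide conjugates, detected with HRP anti-human Ig and TMB colour, mock-treated BSA without peptide as negative control.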
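For Peptide-ratio 17-22/2-7 in this document: ELISA of antibody at 10 or 2 µg/ml binding plate-coated BSA–peptide conjugates, detected with HRP anti-human Ig and TMB colour, mock-treated BSA without peptide as negative control.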
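For Peptide-ratio 18-23/2-7 in this document: ELISA of antibody at 10 or 2 µg/ml binding plate-coated BSA–peptide conjugates, detected with HRP anti-human Ig and TMB colour, mock-treated BSA without peptide as negative control.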
Protocol: as §1

B1: MS-Roche #7.12 Fab (Fab, V domains shown)
VH: QVQLVESGGGLVQPGGSLRLSCAASGFTFSSYGMSWVRQAPGKGLEWVSNISGSGSSTYYADSVKGRFTISRDNSKNTLYLQMNSLRAEDTAVYYCARGKGNTHKPYGYVRYFDVWGQGTLVTVSS
VL: DIVLTQSPATLSLSPGERATLSCRASQYVSSPYLAWYQQKPGQAPRLLISGSSNRATGVPARFSGSGSGTDFTLTISSLEPEDFAVYYCLQLYNIPNTFGQGTKVEIKR
OD ratio 18-23/BSA [1]: 8 | Peptide-ratio 18-23/2-7 [1]: 0.21 | OD ratio 17-22/BSA [2]: 6 | Peptide-ratio 17-22/2-7 [2]: 0.16 | OD ratio 19-24/BSA [3]: 7 | Peptide-ratio 19-24/2-7 [3]: 0.18 | OD ratio 2-7/BSA [4]: 38 | Kd [5]: 28 nM | Kd [6]: 60 nM

B2: MS-Roche #3.4H7×3.4L9 Fab (Fab, V domains shown)
VH: QLVESGGGLVQPGGSLRLSCAASGFTFSSYAMSWVRQAPGKGLEWVSVISETGKNIYYADSVKGRFTISRDNSKNTLYLQMNSLRAEDTAVYYCARLTHYARYYRYFDVWGQGTLVTVSS
VL: DIVLTQSPATLSLSPGERATLSCRASRRIHVYYLAWYQQKPGQAPRLLIYGASSRATGVPARFSGSGSGTDFTLTISSLEPEDFATYYCQQTYDYPPTFGQGTKVEIKR
notes: cross-cloned Fab
Kd [7]: 2.66 nM | Kd [8]: 3.51 nM

B3: MS-Roche #3.4H3×3.4L9 Fab (Fab, V domains shown)
VH: QLVESGGGLVQPGGSLRLSCAASGFTFSSYAMSWVRQAPGKGLEWVSVISQTGRKIYYADSVKGRFTISRDNSKNTLYLQMNSLRAEDTAVYYCARLTHYARYYRYFDVWGQGTLVTVSS
VL: DIVLTQSPATLSLSPGERATLSCRASRRIHVYYLAWYQQKPGQAPRLLIYGASSRATGVPARFSGSGSGTDFTLTISSLEPEDFATYYCQQTYDYPPTFGQGTKVEIKR
notes: cross-cloned Fab
Kd [7]: 1.05 nM | Kd [8]: 0.93 nM

B4: MS-Roche #3.4H3×3.4L7 Fab (Fab, V domains shown)
VH: QLVESGGGLVQPGGSLRLSCAASGFTFSSYAMSWVRQAPGKGLEWVSVISQTGRKIYYADSVKGRFTISRDNSKNTLYLQMNSLRAEDTAVYYCARLTHYARYYRYFDVWGQGTLVTVSS
VL: DIVLTQSPATLSLSPGERATLSCRASQRLGRLYLAWYQQKPGQAPRLLIYGASSRATGVPARFSGSGSGTDFTLTISSLEPEDFATYYCQQTYDYPPTFGQGTKVEIKR
notes: cross-cloned Fab
Kd [7]: 0.92 nM | Kd [8]: 0.92 nM

B5: MS-Roche #3.4H1×3.4L9 Fab (Fab, V domains shown)
VH: QLVESGGGLVQPGGSLRLSCAASGFTFSSYAMSWVRQAPGKGLEWVSAISETSIRKYYADSVKGRFTISRDNSKNTLYLQMNSLRAEDTAVYYCARLTHYARYYRYFDVWGQGTLVTVSS
VL: DIVLTQSPATLSLSPGERATLSCRASRRIHVYYLAWYQQKPGQAPRLLIYGASSRATGVPARFSGSGSGTDFTLTISSLEPEDFATYYCQQTYDYPPTFGQGTKVEIKR
notes: cross-cloned Fab
Kd [7]: 0.25 nM | Kd [8]: 0.5 nM

B6: MS-Roche #3.4H7×3.4L7 Fab (Fab, V domains shown)
VH: QLVESGGGLVQPGGSLRLSCAASGFTFSSYAMSWVRQAPGKGLEWVSVISETGKNIYYADSVKGRFTISRDNSKNTLYLQMNSLRAEDTAVYYCARLTHYARYYRYFDVWGQGTLVTVSS
VL: DIVLTQSPATLSLSPGERATLSCRASQRLGRLYLAWYQQKPGQAPRLLIYGASSRATGVPARFSGSGSGTDFTLTISSLEPEDFATYYCQQTYDYPPTFGQGTKVEIKR
notes: cross-cloned Fab
Kd [7]: 1.19 nM | Kd [8]: 1.23 nM

B7: MS-Roche #3.3H1×3.4L9 Fab (Fab, V domains shown)
VH: QLVESGGGLVQPGGSLRLSCAASGFTFSSYAMSWVRQAPGKGLEWVSVISEKSRFIYYADSVKGRFTISRDNSKNTLYLQMNSLRAEDTAVYYCARLTHYARYYRYFDVWGQGTLVTVSS
VL: DIVLTQSPATLSLSPGERATLSCRASRRIHVYYLAWYQQKPGQAPRLLIYGASSRATGVPARFSGSGSGTDFTLTISSLEPEDFATYYCQQTYDYPPTFGQGTKVEIKR
notes: cross-cloned Fab
Kd [7]: 2.16 nM | Kd [8]: 2.97 nM

B8: MS-Roche #8.1.H1 Fab (Fab, V domains shown)
VH: QVQLVESGGGLVQPGGSLRLSCAASGFTFSSYAMSWVRQAPGKGLEWVSAISRSGSNIYYADSVKGRFTISRDNSKNTLYLQMNSLRAEDTAVYYCARLLSRGYNGYYHKFDVWGQGTLVTVSS
VL: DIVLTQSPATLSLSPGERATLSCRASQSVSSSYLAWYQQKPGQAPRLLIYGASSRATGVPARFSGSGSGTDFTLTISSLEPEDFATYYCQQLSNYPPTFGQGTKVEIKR
OD ratio 18-23/BSA [1]: 25 | Peptide-ratio 18-23/2-7 [1]: 0.88 | OD ratio 17-22/BSA [2]: 22 | Peptide-ratio 17-22/2-7 [2]: 0.77 | OD ratio 19-24/BSA [3]: 25 | Peptide-ratio 19-24/2-7 [3]: 0.86 | OD ratio 2-7/BSA [4]: 29 | Kd [5]: 13.6 nM | Kd [6]: 9.2 nM

B9: MS-Roche #8.2.L1 Fab (Fab, V domains shown)
VH: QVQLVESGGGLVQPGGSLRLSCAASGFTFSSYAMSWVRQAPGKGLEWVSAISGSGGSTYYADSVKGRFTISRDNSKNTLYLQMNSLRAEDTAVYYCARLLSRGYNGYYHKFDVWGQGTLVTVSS
VL: DIVLTQSPATLSLSPGERATLSCRASQRVSGRYLAWYQQKPGQAPRLLIYGASSRATGVPARFSGSGSGTDFTLTISSLEPEDFATYYCQQLSSYPPTFGQGTKVEIKR
OD ratio 18-23/BSA [1]: 32 | Peptide-ratio 18-23/2-7 [1]: 1.26 | OD ratio 17-22/BSA [2]: 15 | Peptide-ratio 17-22/2-7 [2]: 0.6 | OD ratio 19-24/BSA [3]: 31 | Peptide-ratio 19-24/2-7 [3]: 1.22 | OD ratio 2-7/BSA [4]: 26 | Kd [5]: 4.8 nM | Kd [6]: 3.7 nM

B10: MS-Roche #3.4.H5 Fab (Fab, V domains shown)
VH: QVQLVESGGGLVQPGGSLRLSCAASGFTFSSYAMSWVRQAPGKGLEWVSVISQVGAHIYYADSVKGRFTISRDNSKNTLYLQMNSLRAEDTAVYYCARLTHYARYYRYFDVWGQGTLVTVSS
VL: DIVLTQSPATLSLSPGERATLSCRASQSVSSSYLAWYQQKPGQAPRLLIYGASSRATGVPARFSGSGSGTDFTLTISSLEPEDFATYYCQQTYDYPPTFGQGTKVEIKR
OD ratio 18-23/BSA [1]: 13 | Peptide-ratio 18-23/2-7 [1]: 0.46 | OD ratio 17-22/BSA [2]: 5 | Peptide-ratio 17-22/2-7 [2]: 0.18 | OD ratio 19-24/BSA [3]: 4 | Peptide-ratio 19-24/2-7 [3]: 0.14 | OD ratio 2-7/BSA [4]: 28 | Kd [5]: 26.5 nM | Kd [6]: 36 nM

B11: MS-Roche #3.4.H17 Fab (Fab, V domains shown)
VH: QVQLVESGGGLVQPGGSLRLSCAASGFTFSSYAMSWVRQAPGKGLEWVSAISEFGQFIYYADSVKGRFTISRDNSKNTLYLQMNSLRAEDTAVYYCARLTHYARYYRYFDVWGQGTLVTVSS
VL: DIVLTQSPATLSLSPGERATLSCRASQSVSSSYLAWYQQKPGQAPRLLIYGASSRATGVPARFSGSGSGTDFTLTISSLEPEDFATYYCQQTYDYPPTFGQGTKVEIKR
OD ratio 18-23/BSA [1]: 12 | Peptide-ratio 18-23/2-7 [1]: 0.43 | OD ratio 17-22/BSA [2]: 5 | Peptide-ratio 17-22/2-7 [2]: 0.18 | OD ratio 19-24/BSA [3]: 11 | Peptide-ratio 19-24/2-7 [3]: 0.39 | OD ratio 2-7/BSA [4]: 28 | Kd [5]: 2 nM | Kd [6]: 4.3 nM

B12: MS-Roche #3.6.H2 Fab (Fab, V domains shown)
VH: QVQLVESGGGLVQPGGSLRLSCAASGFTFSSYAMSWVRQAPGKGLEWVSVISERGINTYYADSVKGRFTISRDNSKNTLYLQMNSLRAEDTAVYYCARLTHYARYYRYFDVWGQGTLVTVSS
VL: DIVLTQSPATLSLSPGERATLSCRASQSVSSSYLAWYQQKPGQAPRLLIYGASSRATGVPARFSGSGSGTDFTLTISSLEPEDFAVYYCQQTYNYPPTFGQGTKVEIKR
OD ratio 18-23/BSA [1]: 8 | Peptide-ratio 18-23/2-7 [1]: 0.42 | OD ratio 17-22/BSA [2]: 2 | Peptide-ratio 17-22/2-7 [2]: 0.11 | OD ratio 19-24/BSA [3]: 3 | Peptide-ratio 19-24/2-7 [3]: 0.16 | OD ratio 2-7/BSA [4]: 19 | Kd [5]: 19.8 nM | Kd [6]: 54 nM

B13: MS-Roche #3.6.H1 Fab (Fab, V domains shown)
VH: QVQLVESGGGLVQPGGSLRLSCAASGFTFSSYAMSWVRQAPGKGLEWVSVISESGQYKYYADSVKGRFTISRDNSKNTLYLQMNSLRAEDTAVYYCARLTHYARYYRYFDVWGQGTLVTVSS
VL: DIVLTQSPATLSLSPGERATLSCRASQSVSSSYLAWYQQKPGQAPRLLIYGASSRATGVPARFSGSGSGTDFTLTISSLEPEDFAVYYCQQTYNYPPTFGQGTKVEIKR
OD ratio 18-23/BSA [1]: 13 | Peptide-ratio 18-23/2-7 [1]: 0.57 | OD ratio 17-22/BSA [2]: 3 | Peptide-ratio 17-22/2-7 [2]: 0.13 | OD ratio 19-24/BSA [3]: 5 | Peptide-ratio 19-24/2-7 [3]: 0.22 | OD ratio 2-7/BSA [4]: 23 | Kd [5]: 18.9 nM | Kd [6]: 23.1 nM

B14: MS-Roche #3.4.L11 Fab (Fab, V domains shown)
VH: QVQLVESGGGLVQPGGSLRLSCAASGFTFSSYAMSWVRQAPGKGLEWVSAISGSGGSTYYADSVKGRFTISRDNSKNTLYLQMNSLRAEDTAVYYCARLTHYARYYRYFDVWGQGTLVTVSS
VL: DIVLTQSPATLSLSPGERATLSCRASQLVGRAYLAWYQQKPGQAPRLLIYGASSRATGVPARFSGSGSGTDFTLTISSLEPEDFATYYCQQTYDYPPTFGQGTKVEIKR
OD ratio 18-23/BSA [1]: 20 | Peptide-ratio 18-23/2-7 [1]: 0.65 | OD ratio 17-22/BSA [2]: 6 | Peptide-ratio 17-22/2-7 [2]: 0.19 | OD ratio 19-24/BSA [3]: 5 | Peptide-ratio 19-24/2-7 [3]: 0.16 | OD ratio 2-7/BSA [4]: 31 | Kd [5]: 5.3 nM | Kd [6]: 2.6 nM

B15: MS-Roche #3.6.H6 Fab (Fab, V domains shown)
VH: QVQLVESGGGLVQPGGSLRLSCAASGFTFSSYAMSWVRQAPGKGLEWVSAISEHGTNIYYADSVKGRFTISRDNSKNTLYLQMNSLRAEDTAVYYCARLTHYARYYRYFDVWGQGTLVTVSS
VL: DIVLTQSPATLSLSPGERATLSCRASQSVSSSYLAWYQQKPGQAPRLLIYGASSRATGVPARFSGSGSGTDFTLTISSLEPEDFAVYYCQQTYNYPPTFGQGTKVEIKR
OD ratio 18-23/BSA [1]: 4 | Peptide-ratio 18-23/2-7 [1]: 0.16 | OD ratio 17-22/BSA [2]: 1 | Peptide-ratio 17-22/2-7 [2]: 0.04 | OD ratio 19-24/BSA [3]: 7 | Peptide-ratio 19-24/2-7 [3]: 0.28 | OD ratio 2-7/BSA [4]: 25 | Kd [5]: 36 nM | Kd [6]: 11.8 nM
